The data set addresses FLPe (thermostable FLP variant) (UniProt P03870). The data set can be described thus: cell_activity.

The text below walks through data of patent US20140120625.

Chain of UniProt P03870 (P03870 whole entry, change not shown): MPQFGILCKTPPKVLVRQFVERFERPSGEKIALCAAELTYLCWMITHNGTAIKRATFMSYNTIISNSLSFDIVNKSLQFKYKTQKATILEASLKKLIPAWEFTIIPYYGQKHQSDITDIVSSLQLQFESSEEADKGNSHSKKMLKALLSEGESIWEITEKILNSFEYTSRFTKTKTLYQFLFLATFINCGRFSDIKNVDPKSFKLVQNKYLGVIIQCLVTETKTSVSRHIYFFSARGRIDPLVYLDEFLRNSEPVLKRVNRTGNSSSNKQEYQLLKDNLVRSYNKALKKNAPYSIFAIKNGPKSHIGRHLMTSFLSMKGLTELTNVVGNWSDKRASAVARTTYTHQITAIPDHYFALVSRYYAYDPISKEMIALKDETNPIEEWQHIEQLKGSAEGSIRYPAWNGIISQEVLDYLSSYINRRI

In turn, “TTGAAGTTCCTATTCCGAGTTCCTATTCTCTAGAAAGTATAGGAACTTC (double strand) [FRT-F]” registered a binding signal (simultaneous four-locus gene swapping frequency in A. niger M1146, FRT-F/FRT-F3 pair) of 3 fold vs FLP.

The sequence “TTGAAGTTCCTATTCCGAGTTCCTATTCTTCAAATAGTATAGGAACTTCA (double strand) [FRT-F3]” returned a binding signal (same assay, paired with FRT-F) of 3 fold vs FLP.
